T1: VEGFR-3-Fc (UniProt P35916 25-328)
T1 construct: domain: first three Ig domains; conditioned supernatant of 293T cells; also called VEGFR-3-Fc fusion protein; not shown: Fc fragment of the pIg vector
T1 sequence (looked up): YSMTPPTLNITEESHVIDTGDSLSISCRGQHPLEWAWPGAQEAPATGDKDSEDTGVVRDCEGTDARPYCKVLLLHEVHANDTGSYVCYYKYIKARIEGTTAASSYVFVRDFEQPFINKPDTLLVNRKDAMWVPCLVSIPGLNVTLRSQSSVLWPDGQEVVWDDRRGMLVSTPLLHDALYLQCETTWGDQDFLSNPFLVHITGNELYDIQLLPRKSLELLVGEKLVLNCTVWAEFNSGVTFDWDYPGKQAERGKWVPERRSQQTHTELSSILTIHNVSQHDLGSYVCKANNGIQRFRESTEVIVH


How the values were obtained:
Assay in all cases: receptor-Fc IP
VEGFR-2-Fc = biological target: T2, VEGFR-2-Fc (UniProt P35968 20-322)
T2 construct: domain: first 3 Ig domains; conditioned supernatant of 293T cells; also called VEGFR-2-Fc fusion protein; not shown: Fc fragment of the pIg vector
Procedure, shortened: (§1)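 Binding of ligand from sample supernatant measured by pentahistidine-antibody immunoprecipitation. IP mix: PBS with 1.5% BSA, 0.06% Tween 20, 3 μg/ml heparin and 400 ng/ml fusion protein, added 1:2 to sample supernatant.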

VEGFR-1-Fc = biological target: T3, VEGFR-1-Fc (UniProt P17948 27-338)
T3 construct: domain: first three Ig domains; expressed in Drosophila S2 cells, purified on Protein A sepharose; also called VEGFR-1-Fc fusion protein; not shown: Fc fragment from the Signal-pIgPlus vector
Procedure, shortened: as §1

VEGFR-3-Fc = biological target: T1, VEGFR-3-Fc
Procedure, shortened: as §1

T3 sequence (P17948 27-338): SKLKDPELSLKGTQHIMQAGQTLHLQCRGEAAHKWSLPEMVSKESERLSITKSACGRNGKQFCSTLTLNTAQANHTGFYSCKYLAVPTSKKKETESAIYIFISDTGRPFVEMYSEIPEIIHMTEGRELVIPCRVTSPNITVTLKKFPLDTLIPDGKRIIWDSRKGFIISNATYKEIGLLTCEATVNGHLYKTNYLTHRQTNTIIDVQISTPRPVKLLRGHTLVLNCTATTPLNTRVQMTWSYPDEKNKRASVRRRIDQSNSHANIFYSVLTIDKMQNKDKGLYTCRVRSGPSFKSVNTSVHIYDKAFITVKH
T2 sequence (P35968 20-322): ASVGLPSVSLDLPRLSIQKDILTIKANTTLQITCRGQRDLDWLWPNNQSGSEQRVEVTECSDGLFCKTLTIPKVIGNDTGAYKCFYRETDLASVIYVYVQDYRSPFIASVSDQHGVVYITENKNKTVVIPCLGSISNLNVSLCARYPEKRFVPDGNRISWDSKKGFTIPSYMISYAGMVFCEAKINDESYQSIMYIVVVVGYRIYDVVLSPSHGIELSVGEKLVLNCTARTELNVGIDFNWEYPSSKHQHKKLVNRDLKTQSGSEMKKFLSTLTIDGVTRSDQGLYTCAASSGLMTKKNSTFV

| binding result (VEGFR-2-Fc) | binding result (VEGFR-1-Fc) | binding result (VEGFR-3-Fc) | Binder |
| --- | --- | --- | --- |
| no binding | no binding | no binding | 53-15 (ligand) AHYNTEILKSIDNEWRKTQCMPIETLVDIFQEYPDEIEYIFKPPCVSVYRCGGCCNSEGLQCVPTEESNITMQIMRITVPLSQGPKPVTISFANHTSCRCMSKLD |
| no binding | no binding | no binding | 51-2 (ligand) AHYNTEILKSIDNEWRKTQCMPIETLVDIFQEYPDEIEYIFKPSCVPLMRCGGCCNDEGLECMNTSTSYLSKTLFEIKPHQGQHIGEMSFLQHNKCECRPKKD |
| no binding | no binding | no binding | 51-9 (ligand) AHYNTEILKSIDNEWRKTQCMPIETLVDIFQEYPDEIEYIFKPSCVPLMRCGGCCNDEGLECVPTEESNITMQIMRITVPLSQGPKPVTISFLQHNKCECRPKKD |
| no binding | no binding | no binding | 53-11 (ligand) AHYNTEILKSIDNEWRKTQCMPIETLVDIFQEYPDEIEYIFKPPCVSVYRCGGCCNSEGLQCVPTEESNITMQIMRITVPLSQGPKPVTISFLQHNKCECRPKKD |
| no binding | no binding | no binding | 53-9 (ligand) AHYNTEILKSIDNEWRKTQCMPIETLVDIFQEYPDEIEYIFKPPCVSVYRCGGCCNDEGLECVPTEESNITMQIMRITVPLSQGPKPVTISFLQHNKCECRPKKD |
| no binding | no binding | no binding | 52-6 (ligand) AHYNTEILKSIDNEWRKTQCMPIETLVDIFQEFGVATNTFFKPPCVSVYRCGGCCNDEGLECMNTSTSYLSKTLFEIKPHQGQHIGEMSFANHTSCRCMSKLD |
| no binding | no binding | no binding | 52-8 (ligand) AHYNTEILKSIDNEWRKTQCMPIETLVDIFQEFGVATNTFFKPPCVSVYRCGGCCNSEGLQCMNTSTSYLSKTLFEIKPHQGQHIGEMSFANHTSCRCMSKLD |
| no binding | no binding | no binding | 32-13 (ligand) GQNHHEVVKSIDNEWRKTQCMPIETLVDIFQEFGVATNTFFKPPCVSVYRCGGCCNDEGLECVPTEESNITMQIMRITVPLSQGPKPVTISFANHTSCRCMSKLD |
| no binding | no binding | no binding | 51-1 (ligand) AHYNTEILKSIDNEWRKTQCMPIETLVDIFQEYPDEIEYIFKPSCVPLMRCGGCCNDEGLECVPTEESNITMQIMRIKPHQGQHIGEMSFLQHNKCECRPKKD |
| no binding | no binding | no binding | 51-7 (ligand) AHYNTEILKSIDNEWRKTQCMPIETLVDIFQEYPDEIEYIFKPSCVPLMRCGGCCNSEGLQCVPTEESNITMQIMRIKPHQGQHIGEMSFANHTSCRCMSKLD |
| no binding | no binding | no binding | 51-5 (ligand) AHYNTEILKSIDNEWRKTQCMPIETLVDIFQEYPDEIEYIFKPSCVPLMRCGGCCNDEGLECVPTEESNITMQIMRIKPHQGQHIGEMSFANHTSCRCMSKLD |
| no binding | no binding | no binding | 51-3 (ligand) AHYNTEILKSIDNEWRKTQCMPIETLVDIFQEYPDEIEYIFKPSCVPLMRCGGCCNSEGLQCVPTEESNITMQIMRIKPHQGQHIGEMSFLQHNKCECRPKKD |
| no binding | no binding | no binding | 53-5 (ligand) AHYNTEILKSIDNEWRKTQCMPIETLVDIFQEYPDEIEYIFKPPCVSVYRCGGCCNDEGLECVPTEESNITMQIMRIKPHQGQHIGEMSFANHTSCRCMSKLD |
| no binding | no binding | no binding | 21-15 (ligand) AHYNTEILKSIDNEWRKTQCMPREVCIDVGKEYPDEIEYIFKPSCVPLMRCGGCCNSEGLQCVPTEESNITMQIMRITVPLSQGPKPVTISFANHTSCRCMSKLD |
| no binding | no binding | no binding | 31-2 (ligand) GQNHHEVVKSIDNEWRKTQCMPIETLVDIFQEYPDEIEYIFKPSCVPLMRCGGCCNDEGLECVPTEESNITMQIMRIKPHQGQHIGEMSFANHTSCRCMSKLD |

More lines, now with the values behind:

| Binder | binding result (VEGFR-2-Fc) | binding result (VEGFR-1-Fc) | binding result (VEGFR-3-Fc) |
| --- | --- | --- | --- |
| 53-13 (ligand) AHYNTEILKSIDNEWRKTQCMPIETLVDIFQEYPDEIEYIFKPPCVSVYRCGGCCNDEGLECVPTEESNITMQIMRITVPLSQGPKPVTISFANHTSCRCMSKLD | no binding | no binding | no binding |
| 51-4 (ligand) AHYNTEILKSIDNEWRKTQCMPIETLVDIFQEYPDEIEYIFKPSCVPLMRCGGCCNSEGLQCMNTSTSYLSKTLFEIKPHQGQHIGEMSFLQHNKCECRPKKD | no binding | no binding | no binding |
| 51-8 (ligand) AHYNTEILKSIDNEWRKTQCMPIETLVDIFQEYPDEIEYIFKPSCVPLMRCGGCCNSEGLQCMNTSTSYLSKTLFEIKPHQGQHIGEMSFANHTSCRCMSKLD | no binding | no binding | no binding |
| 51-11 (ligand) AHYNTEILKSIDNEWRKTQCMPIETLVDIFQEYPDEIEYIFKPSCVPLMRCGGCCNSEGLQCVPTEESNITMQIMRITVPLSQGPKPVTISFLQHNKCECRPKKD | no binding | no binding | no binding |
| 21-13 (ligand) AHYNTEILKSIDNEWRKTQCMPREVCIDVGKEYPDEIEYIFKPSCVPLMRCGGCCNDEGLECVPTEESNITMQIMRITVPLSQGPKPVTISFANHTSCRCMSKLD | no binding | no binding | no binding |
| 51-13 (ligand) AHYNTEILKSIDNEWRKTQCMPIETLVDIFQEYPDEIEYIFKPSCVPLMRCGGCCNDEGLECVPTEESNITMQIMRITVPLSQGPKPVTISFANHTSCRCMSKLD | no binding | no binding | no binding |
| 51-15 (ligand) AHYNTEILKSIDNEWRKTQCMPIETLVDIFQEYPDEIEYIFKPSCVPLMRCGGCCNSEGLQCVPTEESNITMQIMRITVPLSQGPKPVTISFANHTSCRCMSKLD | no binding | no binding | no binding |
| 52-1 (ligand) AHYNTEILKSIDNEWRKTQCMPIETLVDIFQEFGVATNTFFKPPCVSVYRCGGCCNDEGLECVPTEESNITMQIMRIKPHQGQHIGEMSFLQHNKCECRPKKD | no binding | no binding | no binding |
| 52-3 (ligand) AHYNTEILKSIDNEWRKTQCMPIETLVDIFQEFGVATNTFFKPPCVSVYRCGGCCNSEGLQCVPTEESNITMQIMRIKPHQGQHIGEMSFLQHNKCECRPKKD | no binding | no binding | no binding |
| 52-7 (ligand) AHYNTEILKSIDNEWRKTQCMPIETLVDIFQEFGVATNTFFKPPCVSVYRCGGCCNSEGLQCVPTEESNITMQIMRIKPHQGQHIGEMSFANHTSCRCMSKLD | no binding | no binding | no binding |
